In publication PMC5193325:

Target: Flag-NLRP3 (UniProt Q96P20)
Experiment: pull-down; competition: purified cytochrome c (100 ng) or BSA added to Flag-NLRP3 immunoprecipitates with HA-NEK7 lysate, 1 hour at room temperature; NEK7 left on the beads read by immunoblot, ImageJ

Chain of Flag-NLRP3 (Q96P20 whole entry): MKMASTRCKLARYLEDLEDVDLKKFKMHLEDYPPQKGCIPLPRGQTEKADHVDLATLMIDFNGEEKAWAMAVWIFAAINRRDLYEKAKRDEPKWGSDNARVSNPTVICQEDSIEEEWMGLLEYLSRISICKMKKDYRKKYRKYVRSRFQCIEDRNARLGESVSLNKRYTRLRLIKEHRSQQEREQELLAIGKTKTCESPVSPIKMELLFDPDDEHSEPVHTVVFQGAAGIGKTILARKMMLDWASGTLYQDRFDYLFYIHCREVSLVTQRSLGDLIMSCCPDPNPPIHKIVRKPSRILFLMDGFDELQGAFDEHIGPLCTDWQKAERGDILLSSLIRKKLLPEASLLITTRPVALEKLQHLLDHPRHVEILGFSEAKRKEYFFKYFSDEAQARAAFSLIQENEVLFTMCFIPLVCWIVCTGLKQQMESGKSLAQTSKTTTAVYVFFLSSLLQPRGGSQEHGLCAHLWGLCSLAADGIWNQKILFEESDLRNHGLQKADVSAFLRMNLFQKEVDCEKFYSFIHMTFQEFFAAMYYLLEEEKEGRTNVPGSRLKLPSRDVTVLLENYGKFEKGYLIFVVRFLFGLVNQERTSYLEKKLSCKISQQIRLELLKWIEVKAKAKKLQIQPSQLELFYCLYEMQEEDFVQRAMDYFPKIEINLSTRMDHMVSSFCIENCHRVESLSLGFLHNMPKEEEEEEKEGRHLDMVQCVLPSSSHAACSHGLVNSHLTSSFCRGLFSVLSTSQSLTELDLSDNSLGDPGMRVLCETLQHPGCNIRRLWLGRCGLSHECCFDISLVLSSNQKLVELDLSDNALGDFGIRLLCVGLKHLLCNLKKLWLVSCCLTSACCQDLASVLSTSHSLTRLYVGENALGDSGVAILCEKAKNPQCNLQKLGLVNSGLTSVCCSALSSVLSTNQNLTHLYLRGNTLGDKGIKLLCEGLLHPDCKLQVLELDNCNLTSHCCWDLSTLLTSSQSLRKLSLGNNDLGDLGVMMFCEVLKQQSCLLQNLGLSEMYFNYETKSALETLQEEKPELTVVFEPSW

- percent reduction of NEK7 bound to Flag-NLRP3 (cytochrome c against BSA): 70%
Substance: Purified cytochrome c protein (Sigma-Aldrich) (from UniProt P99999 1-105) (natural protein)
